Assay results: patent publication US20260021197A1, “NANOPARTICLES AND PEPTIDES FOR THE DELIVERY OF CARGOS TO CHONDROCYTES” (4BASEBIO UK LTD, priority 2022, published 2026)

Columns and labels:
[1] = Biophysical characterisation of nanoparticles by dynamic light scattering (size, PDI); format: physicochemical
Protocol: The size in nm by Dynamic Light Scattering (DLS), zeta potential in mV by Electrophoretic Light Scattering (ELS), and concentration of particles per ml by Multi-Angle Dynamic Light Scattering (MADLS) of the closed linear DNA/mRNA-lipid-peptide nanoparticles was determined using the Zetasizer Ultra (Malvern). Complexes were prepared as before, except formulated in nuclease-free water rather than Opti-MEM. Samples containing 0.7 μg hpDNA were diluted in 1 ml for analysis.

[2] = test system: primary human chondrocytes; test: Transfection of primary human chondrocytes, GFP expression by flow cytometry; format: cell-based; conditions: closed linear DNA:lipid:peptide nanoparticles, 48 h post-transfection
Protocol: (§1) Peptides identified via phage display with affinity toward primary human chondrocytes, and peptides identified in the literature with desirable chondrocyte binding characteristics were synthesised via solid-phase peptide synthetic chemistry in various conformations. A sixteen-lysine tail group was attached using standard synthesis methods (amsbio, UK).
Transfections in primary human chondrocyte cells were performed with a range of peptide:liposome:nucleic acid cargo mass ratios and N/P ratios. Transfections were performed in a 96-well plate at a density of 2000 cells per well seeded 5 days prior to transfection. Charge and mass ratio of components in the transfection complex varied; DNA and mRNA were maintained at a constant mass of 300 ng per well. […] The mass ratio of closed linear DNA:lipid and mRNA:lipid was maintained at 1:3, while the chondrocyte-cell binding peptides were in some cases altered.
(§2) Transfection complexes were formed via electrostatic interaction by vigorous pipetting, before diluting in a final volume of 200 ul per well, with a DNA concentration of 1.5 ng/ul. All dilutions were performed with OptiMEM reduced serum media. Controls included cells with no transfection complexes added (OptiMEM only), along with liposomes encapsulating nucleic acid cargo without peptide.
Transfection complexes were incubated for 30 min at RT before adding to cells. All conditions were performed in triplicate. Cells were incubated at 37° C. for 4 hours, before replacing media with growth media. 48 h post-transfection, the cells were rinsed in PBS, before incubation in 0.05% Trypsin EDTA (Gibco) to detach the cells. 48 h post-transfection, cells were resuspended in PBS for analysis by flow cytometry using the Aligent Novocyte flow cytometer.

[3] = Ribogreen encapsulation efficiency assay; format: physicochemical; conditions: FIG. 4; mRNA:lipid:peptide nanoparticles at N/P ratio 3.98
Protocol: Encapsulation efficiency (EE %) was measured using Quant-iT™ RiboGreen™ RNA Assay Kit (Invitrogen™, Thermo Fisher Scientific, Waltham, MA, USA). Briefly, mRNA was mixed with RiboGreen™ in a total volume of 100 ul TE buffer (10 mM Tris-HCl, 1 mM EDTA, pH 7.5) per well of a 96-well plate and incubated for 10 minutes at RT in the absence of light. Lipid and peptide components were each diluted in a volume of 50 ul TE buffer before mixing thoroughly with the mRNA-Ribogreen via pipette. Nanocomplexes were incubated for 30 minutes at RT in the absence of light. Encapsulation efficiency was measured by quantifying the fluorescence (λem=520 nm, λex=480 nm) of RNA encapsulated in nanoparticles vs. the fluorescence of naked mRNA complexed with Ribogreen™ reagent using a fluorimeter (ClarioStar, BMG Labtech).

[4] = test system: primary human chondrocytes; test: Transfection of primary human chondrocytes, luciferase expression; format: cell-based; conditions: FIG. 3, mRNA:lipid:peptide nanoparticles, DOTMA-DOPE 2:1 + 10% cholesterol, 4 h post-transfection
Protocol: as §1
Transfections in primary human chondrocyte cells were performed with a range of peptide: liposome:nucleic acid cargo mass ratios and N/P ratios. Transfections were performed in a 96-well plate at a density of 2000 cells per well seeded 5 days prior to transfection. Charge and mass ratio of components in the transfection complex varied; DNA and mRNA were maintained at a constant mass of 300 ng per well. The molar ratio of the cationic lipid DOTMA to the phospholipid DOPE was kept at 2:1 (DD 2:1), while cholesterol was added at a molar percentage of 10% of the total lipid content. The mass ratio of closed linear DNA:lipid and mRNA:lipid was maintained at 1:3, while the chondrocyte-cell binding peptides were in some cases altered.
as §2
Transfection complexes were incubated for 30 min at RT before adding to cells. All conditions were performed in triplicate. Cells were incubated at 37° C. for 4 hours, before replacing media with growth media. 48 h post-transfection for DNA and 4 h post-transfection for RNA, the cells were rinsed in PBS, before resuspension in Reporter Lysis buffer (Promega). Plates were incubated at 4° C. for 20 minutes, before −80° C. for 40 minutes. After thawing, luciferase activity was measured following injection of the luciferase assay substrate on the ClarioSTAR plus plate reader (BMG Labtech, Aylesbury, UK). Luciferase expression was normalised to protein content using Pierce BCA Protein Assay, with absorbance measured at 562 nm. Luciferase activity was expressed as Relative Light Units per mg of protein (RLU/mg).

[5] = FIG. 5, closed linear DNA, DOTMA-DOPE 2:1 + 10% cholesterol
[6] = FIG. 1, DOTMA-DOPE 2:1 + 10% cholesterol
[7] = FIG. 6, mRNA, DOTMA-DOPE 2:1 + 10% cholesterol

For “KKKKKKKKKKKKKKKKGACHDSQLEALIKFMC [HC4 C-N]”, the “Polydispersity Index (PDI)” value [1, 5] was 0.45.

For “KKKKKKKKKKKKKKKKGACRLDPTSYLRTFWC [HC3 C-N]”, the “GFP expression (% of the cells expressing GFP)” value [2, 6] was 9%, the “median fluorescence intensity (MFI)” value [2, 6] was 1E+05 and the “average size by DLS” value [1, 7] was 78 nm. The “Polydisperse Index (PDI)” value ([1]; FIG. 6 passage, printed as closed linear DNA, DOTMA-DOPE 2:1 10% cholesterol) was 0.37.

For “KKKKKKKKKKKKKKKKGAHDSQLEALIKFM [HC4 L-N]”, the “average size by DLS” value [1, 7] was 36.65 nm.

In the case of “KKKKKKKKKKKKKKKKGADWRVIIPPRPSA [HC5 L-N]”, the “encapsulation efficacy (% of mRNA encapsulated)” value [3] is reported as 96.86%.

With “KKKKKKKKKKKKKKKKRVRRCDWRVIIPPRPSAC [HC5 C-C]” the “GFP expression (% of the cells expressing GFP)” value ([2]; FIG. 2, C16-DOPE 2:1 with 10% cholesterol) was 24% and the “average size by DLS” value [1, 5] was 51.37 nm.

With “KKKKKKKKKKKKKKKKGACDWRVIIPPRPSAC [HC5 C-N]” the luciferase expression ([4]; N/P ratio 3.48) was 3.2E+11 RLU/mg protein, the luciferase expression ([4]; N/P ratio 4.48) was 4E+11 RLU/mg protein and the luciferase expression ([4]; N/P ratio 7.48) was 3.3E+11 RLU/mg protein. The luciferase expression ([4]; N/P ratio 8.48) was 2.5E+11 RLU/mg protein, the “GFP expression (% of the cells expressing GFP)” value [2, 6] was 21% and the “median fluorescence intensity (MFI)” value [2, 6] was 1E+06. The “average size by DLS” value [1, 5] was 100 nm.

For “KKKKKKKKKKKKKKKKGARLDPTSYLRTFW [HC3 L-N]”, the “Polydispersity Index (PDI)” value [1, 5] was 0.2 and the “Polydisperse Index (PDI)” value [1, 7] was 0.13.
